This data set is described as follows: self-splicing fitness, log relative to wild type (ln ratio); higher = more splicing; Tetrahymena group I intron in knt gene, E. coli kanamycin selection, DiMSum; sequences stand for … in CUCUCU…GGAGGGAAAAGUUAUCAGGCAUGCACCUGGUAGCUAGUCUUUAAACCAAUAGAUUGCAUCGGUUUAAAAGGCAAGACCGUCAAAUUGCGGGAAAGGGGUCAACAGCCGUUCAGUACCAAGUCUCAGGGGAAACUUUGAGAUGGCCUUGCAAAGGGUAUGGUAAUAAGCUGACGGACAUGGUCCUAACCACGCAGCCAAGUCCUAAGUCAACAGAUCUUCUGUUGAUAUGGAUGCAGUUCACAGACUAAAUGUCGGUCGGGGAAGAUGUAUUCUUCUCAUAAGAUAUAGUCGGACCUCUCCUUAAUGGGAGCUAGCGGAUGAAGUGAUGCAACACUGGAGCCGCUGGGAACUAAUUUGUAUGCGAAAGUAUAUUGAUUAGUUUUGGAGUACUCGUGGUCG
Summed up: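 A randomised library covering all eight P1ex-region intron nucleotides was built with the intron in the knt kanamycin-resistance gene on pET-22b(+) and held in E. coli BL21(DE3). Cells were grown overnight at 37°C or 30°C on LB agar, with or without 25 μg/mL kanamycin, plus 100 μg/mL carbenicillin, 50 μM IPTG and 0.2% rhamnose, and pooled colonies were amplicon-sequenced on an Illumina HiSeq 2500. DiMSum fitness is the error-weighted combination of wild-type-normalised replicate fold changes, kanamycin versus none.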

± gives the uncertainty stated by the source.

For the sequence AGACAGCAAUAUUACGCAAC, the “self-splicing fitness (ln)” value reads like this: (30 °C) -3.42 ± 0.22; (37 °C) -1.2 ± 0.14.

On to CAAAAGCAAUAUUACGACAC, for which the “self-splicing fitness (ln)” value (30 °C) was -3.37 ± 0.19 and the “self-splicing fitness (ln)” value (37 °C) was -1.01 ± 0.15.

Take CACGAGCAAUAUUACGAUCU: the “self-splicing fitness (ln)” value (37 °C) was -1.99 ± 0.27.

UUAGAGCAAUAUUACGCAGA: under “30 °C”, the “self-splicing fitness (ln)” value turned out to be 1.56 ± 0.32.

For CGUCAGCAAUAUUACGCACC, the “self-splicing fitness (ln)” value reads like this: (30 °C) -1.51 ± 0.1; (37 °C) -0.192 ± 0.13.

For the sequence AGAGAGCAAUAUUACGGUGA, the “self-splicing fitness (ln)” value (30 °C) was -3.54 ± 0.38.

Consider ACACAGCAAUAUUACGACAU, for which the “self-splicing fitness (ln)” value by setting is: (30 °C) -0.676 ± 0.01; (37 °C) -0.0836 ± 0.031.

With AGGAAGCAAUAUUACGGCAC, the “self-splicing fitness (ln)” value reads like this: (30 °C) -1.55 ± 0.14; (37 °C) -0.99 ± 0.14.

Regarding AUUCAGCAAUAUUACGAGCU, the “self-splicing fitness (ln)” value was -1.21 ± 0.14 (30 °C) and -0.997 ± 0.17 (37 °C).

Take GUCUAGCAAUAUUACGGUCG: the “self-splicing fitness (ln)” value reads like this: (30 °C) -1.06 ± 0.089; (37 °C) -0.996 ± 0.11.

As for AAGCAGCAAUAUUACGCAAA, the “self-splicing fitness (ln)” value was -1.82 ± 0.14 (30 °C) and -1.65 ± 0.13 (37 °C).

Turning to AUGAAGCAAUAUUACGCGAG, the “self-splicing fitness (ln)” value reads like this: (30 °C) -0.689 ± 0.09; (37 °C) -0.225 ± 0.099.

As to UCGUAGCAAUAUUACGGGAU, the “self-splicing fitness (ln)” value was -4.41 ± 0.46 (30 °C) and -1.99 ± 0.31 (37 °C).

With CUGGAGCAAUAUUACGUGUG, the “self-splicing fitness (ln)” value was -1.53 ± 0.11 (30 °C) and -0.75 ± 0.13 (37 °C).

CAAGAGCAAUAUUACGUCUC: the “self-splicing fitness (ln)” value was -3.6 ± 0.17 (30 °C) and -2.73 ± 0.18 (37 °C).

With GAAGAGCAAUAUUACGCCGC, where the note is “30 °C”, the “self-splicing fitness (ln)” value is -2.05 ± 0.47.

For the sequence CAAUAGCAAUAUUACGGUGA, the “self-splicing fitness (ln)” value is, setting by setting: (30 °C) -2.83 ± 0.23; (37 °C) -2.09 ± 0.21.

As for AUACAGCAAUAUUACGCAGU, the “self-splicing fitness (ln)” value (30 °C) is -2.88 ± 0.23 and the “self-splicing fitness (ln)” value (37 °C) was -2.74 ± 0.22.

As for GCGCAGCAAUAUUACGAGUA, the “self-splicing fitness (ln)” value is -2.36 ± 0.11 (30 °C) and -0.845 ± 0.096 (37 °C).

Turning to CCAUAGCAAUAUUACGUCAA, the “self-splicing fitness (ln)” value (30 °C) is -4.82 ± 0.41 and the “self-splicing fitness (ln)” value (37 °C) was -0.857 ± 0.17.

With CGUUAGCAAUAUUACGUUUG, the “self-splicing fitness (ln)” value runs as follows: (30 °C) -1.01 ± 0.08; (37 °C) -0.558 ± 0.1.

Consider GAUCAGCAAUAUUACGGAAG, for which the “self-splicing fitness (ln)” value reads like this: (30 °C) -2.38 ± 0.1; (37 °C) -0.761 ± 0.091.

Take AGGUAGCAAUAUUACGCACA: the “self-splicing fitness (ln)” value (30 °C) is -0.467 ± 0.017 and the “self-splicing fitness (ln)” value (37 °C) came to 0.0312 ± 0.034.

On to CCUCAGCAAUAUUACGCCAC, for which the “self-splicing fitness (ln)” value was -3.18 ± 0.36 (30 °C) and -2.12 ± 0.41 (37 °C).

As to UGCAAGCAAUAUUACGUUGC, the “self-splicing fitness (ln)” value (30 °C) is -3.3 ± 0.31 and the “self-splicing fitness (ln)” value (37 °C) is -3.31 ± 0.39.

Turning to CACGAGCAAUAUUACGUUGU, the “self-splicing fitness (ln)” value runs as follows: (30 °C) -3.37 ± 0.15; (37 °C) -2.8 ± 0.18.

With GAACAGCAAUAUUACGUGAA, the “self-splicing fitness (ln)” value reads like this: (30 °C) -0.968 ± 0.061; (37 °C) -0.396 ± 0.069.

In the case of AGUCAGCAAUAUUACGCGGA, the “self-splicing fitness (ln)” value was -3.11 ± 0.26 (30 °C) and -1.79 ± 0.18 (37 °C).

Consider CCGUAGCAAUAUUACGCGCU, for which the “self-splicing fitness (ln)” value by setting is: (30 °C) -3.4 ± 0.4; (37 °C) -1.57 ± 0.3.

As for GCCCAGCAAUAUUACGUUGC, the “self-splicing fitness (ln)” value (30 °C) was -1.11 ± 0.063 and the “self-splicing fitness (ln)” value (37 °C) was -0.368 ± 0.094.

Regarding UCGUAGCAAUAUUACGUUCU, the “self-splicing fitness (ln)” value (30 °C) is -1.6 ± 0.23 and the “self-splicing fitness (ln)” value (37 °C) is -1.49 ± 0.24.

As for GAGAAGCAAUAUUACGACAU, the “self-splicing fitness (ln)” value was -0.36 ± 0.013 (30 °C) and -0.137 ± 0.033 (37 °C).

Consider CGGUAGCAAUAUUACGGCCG, for which the “self-splicing fitness (ln)” value reads like this: (30 °C) -3.76 ± 0.24; (37 °C) -0.985 ± 0.2.

For the sequence GUCGAGCAAUAUUACGUCAU, the “self-splicing fitness (ln)” value is -1.8 ± 0.12 (30 °C) and -1.13 ± 0.1 (37 °C).

On to GUACAGCAAUAUUACGGCGU, for which the “self-splicing fitness (ln)” value (30 °C) is -0.577 ± 0.069 and the “self-splicing fitness (ln)” value (37 °C) is 0.482 ± 0.085.

In the case of CCGAAGCAAUAUUACGUCUC, the “self-splicing fitness (ln)” value reads like this: (30 °C) -3.9 ± 0.28; (37 °C) -3.47 ± 0.2.

GGUGAGCAAUAUUACGCCAC: the “self-splicing fitness (ln)” value (30 °C) is -1.24 ± 0.44.

Take UGCAAGCAAUAUUACGGGUU: the “self-splicing fitness (ln)” value is, setting by setting: (30 °C) -2.62 ± 0.095; (37 °C) -1.23 ± 0.093.

In the case of UGAAAGCAAUAUUACGGCGC, the “self-splicing fitness (ln)” value by setting is: (30 °C) -1.78 ± 0.21; (37 °C) -0.486 ± 0.23.

On to CCUGAGCAAUAUUACGAACC, for which, for the setting “30 °C”, the “self-splicing fitness (ln)” value is -3.35 ± 0.3.

The record behind these values is the supplement of paper PMC7877785.
